We go through 125 sequences from the supplement of paper PMC9112550, “Optimization of the antimicrobial peptide Bac7 by deep mutational scanning” (BMC Biology, 2022).

This data set concerns Escherichia coli TOP10. Nature of the data set: shrunken log2 fold change of peptide-encoding DNA abundance (4.5 h post-induction vs induction); higher = less antimicrobial activity (less host growth inhibition). The conditions noted are these: time post-induction: 4.5 h; library: site-saturation at positions 5, 18, 19, 20.
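Further: peptides expressed intracellularly from a pBAD plasmid library in pooled LB shake-flask culture, induced with 0.3% L-arabinose, DNA abundance read by NGS, three biological replicates, DESeq2 with apeglm shrinkage.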

In the case of RRIRDRPPRLPRPRPRPSWEPRP, the “shrunken log2 fold change” value was -0.00136.

RRIRYRPPRLPRPRPRPFGYPRP: the “shrunken log2 fold change” value is -1.39.

In the case of RRIRDRPPRLPRPRPRPTQTPRP, the “shrunken log2 fold change” value is 0.121.

As for RRIRMRPPRLPRPRPRPMEVPRP, the “shrunken log2 fold change” value is 0.0214.

For RRIRFRPPRLPRPRPRPIFPPRP, the “shrunken log2 fold change” value is -0.222.

Turning to RRIRFRPPRLPRPRPRPPLVPRP, the “shrunken log2 fold change” value is 0.23.

With RRIRHRPPRLPRPRPRPLMCPRP, the “shrunken log2 fold change” value stood at 0.0994.

Take RRIRRRPPRLPRPRPRPRYPPRP: the “shrunken log2 fold change” value amounted to 0.252.

For the sequence RRIRARPPRLPRPRPRPPSHPRP, the “shrunken log2 fold change” value was 0.351.

RRIRLRPPRLPRPRPRPNHSPRP: the “shrunken log2 fold change” value was 0.135.

Consider RRIRYRPPRLPRPRPRPEYTPRP, for which the “shrunken log2 fold change” value is -0.542.

In the case of RRIRSRPPRLPRPRPRPCFDPRP, the “shrunken log2 fold change” value turned out to be 0.11.

Consider RRIRPRPPRLPRPRPRPCWWPRP, for which the “shrunken log2 fold change” value was determined as 0.742.

As to RRIRIRPPRLPRPRPRPWLKPRP, the “shrunken log2 fold change” value was determined as 4.66.

Regarding RRIRGRPPRLPRPRPRPCCNPRP, the “shrunken log2 fold change” value is -0.265.

Turning to RRIRVRPPRLPRPRPRPTRFPRP, the “shrunken log2 fold change” value was determined as 0.0403.

On to RRIRCRPPRLPRPRPRPWTDPRP, for which the “shrunken log2 fold change” value is -0.055.

Consider RRIRSRPPRLPRPRPRPMHSPRP, for which the “shrunken log2 fold change” value was -0.055.

As for RRIRKRPPRLPRPRPRPSWSPRP, the “shrunken log2 fold change” value was -0.075.

On to RRIRIRPPRLPRPRPRPALRPRP, for which the “shrunken log2 fold change” value came to 0.00782.

As to RRIRERPPRLPRPRPRPWLQPRP, the “shrunken log2 fold change” value turned out to be 0.0293.

As for RRIRQRPPRLPRPRPRPKSAPRP, the “shrunken log2 fold change” value was -0.0082.

On to RRIRDRPPRLPRPRPRPDTDPRP, for which the “shrunken log2 fold change” value stood at 0.0647.

Consider RRIRTRPPRLPRPRPRPCRRPRP, for which the “shrunken log2 fold change” value was -0.111.

Consider RRIRGRPPRLPRPRPRPTNRPRP, for which the “shrunken log2 fold change” value was 0.258.

Regarding RRIRIRPPRLPRPRPRPSLTPRP, the “shrunken log2 fold change” value was -1.12.

In the case of RRIRMRPPRLPRPRPRPMCHPRP, the “shrunken log2 fold change” value turned out to be 0.0525.

Regarding RRIRNRPPRLPRPRPRPPPCPRP, the “shrunken log2 fold change” value was determined as 0.756.

RRIRPRPPRLPRPRPRPRDAPRP: the “shrunken log2 fold change” value was found to be 0.635.

For the sequence RRIRLRPPRLPRPRPRPGCWPRP, the “shrunken log2 fold change” value was determined as 0.482.

As to RRIRLRPPRLPRPRPRPVEIPRP, the “shrunken log2 fold change” value stood at 0.0548.

Turning to RRIRRRPPRLPRPRPRPSDSPRP, the “shrunken log2 fold change” value is 0.141.

RRIRHRPPRLPRPRPRPRGIPRP: the “shrunken log2 fold change” value is -0.0565.

As to RRIRTRPPRLPRPRPRPEIGPRP, the “shrunken log2 fold change” value is -0.103.

Turning to RRIRDRPPRLPRPRPRPVPNPRP, the “shrunken log2 fold change” value is -0.0123.

As to RRIRCRPPRLPRPRPRPVAAPRP, the “shrunken log2 fold change” value was 0.689.

For RRIRNRPPRLPRPRPRPSQLPRP, the “shrunken log2 fold change” value was 0.00155.

For the sequence RRIRNRPPRLPRPRPRPGGHPRP, the “shrunken log2 fold change” value was -0.102.

On to RRIRFRPPRLPRPRPRPKCDPRP, for which the “shrunken log2 fold change” value was -0.136.

Take RRIRNRPPRLPRPRPRPKGVPRP: the “shrunken log2 fold change” value came out at 2.97.

In the case of RRIRTRPPRLPRPRPRPKGAPRP, the “shrunken log2 fold change” value worked out at 0.351.

In the case of RRIRWRPPRLPRPRPRPKDWPRP, the “shrunken log2 fold change” value was 0.246.

Regarding RRIRCRPPRLPRPRPRPSHSPRP, the “shrunken log2 fold change” value was -0.392.

As for RRIRIRPPRLPRPRPRPYLWPRP, the “shrunken log2 fold change” value was -0.156.

Take RRIRSRPPRLPRPRPRPRDRPRP: the “shrunken log2 fold change” value was found to be 0.271.

RRIRVRPPRLPRPRPRPNRFPRP: the “shrunken log2 fold change” value came to 0.11.

For RRIRQRPPRLPRPRPRPYGEPRP, the “shrunken log2 fold change” value is -0.0137.

Turning to RRIRHRPPRLPRPRPRPYNHPRP, the “shrunken log2 fold change” value is -0.316.

Consider RRIRPRPPRLPRPRPRPPYMPRP, for which the “shrunken log2 fold change” value is -0.288.

As for RRIRLRPPRLPRPRPRPWNRPRP, the “shrunken log2 fold change” value is -0.0226.

Consider RRIRHRPPRLPRPRPRPRTPPRP, for which the “shrunken log2 fold change” value was 0.314.

Consider RRIRARPPRLPRPRPRPYCMPRP, for which the “shrunken log2 fold change” value was -0.495.

RRIRSRPPRLPRPRPRPDNPPRP: the “shrunken log2 fold change” value was -0.0934.

With RRIRTRPPRLPRPRPRPKKQPRP, the “shrunken log2 fold change” value was -0.15.

RRIRWRPPRLPRPRPRPSENPRP: the “shrunken log2 fold change” value is -0.134.

In the case of RRIRTRPPRLPRPRPRPPMCPRP, the “shrunken log2 fold change” value is 0.0176.

Take RRIRNRPPRLPRPRPRPVKTPRP: the “shrunken log2 fold change” value is -0.0264.

Consider RRIRYRPPRLPRPRPRPACSPRP, for which the “shrunken log2 fold change” value was -0.447.

As to RRIRKRPPRLPRPRPRPPPEPRP, the “shrunken log2 fold change” value turned out to be 1.32.

Regarding RRIRRRPPRLPRPRPRPLSAPRP, the “shrunken log2 fold change” value is 0.444.

Consider RRIRRRPPRLPRPRPRPWPVPRP, for which the “shrunken log2 fold change” value was determined as 0.0907.

RRIRHRPPRLPRPRPRPRVEPRP: the “shrunken log2 fold change” value is 0.0973.

Turning to RRIRARPPRLPRPRPRPDKGPRP, the “shrunken log2 fold change” value is 0.168.

Regarding RRIRPRPPRLPRPRPRPDGQPRP, the “shrunken log2 fold change” value turned out to be 0.204.

In the case of RRIRNRPPRLPRPRPRPTDSPRP, the “shrunken log2 fold change” value is -0.21.

Consider RRIRCRPPRLPRPRPRPDILPRP, for which the “shrunken log2 fold change” value is -0.0877.

On to RRIRQRPPRLPRPRPRPREPPRP, for which the “shrunken log2 fold change” value was found to be 0.0406.

Turning to RRIRARPPRLPRPRPRPNRTPRP, the “shrunken log2 fold change” value is 0.197.

As for RRIRGRPPRLPRPRPRPRTNPRP, the “shrunken log2 fold change” value was 0.588.

In the case of RRIRARPPRLPRPRPRPPVVPRP, the “shrunken log2 fold change” value was found to be 0.378.

As for RRIRKRPPRLPRPRPRPCAGPRP, the “shrunken log2 fold change” value was 0.257.

With RRIRFRPPRLPRPRPRPERGPRP, the “shrunken log2 fold change” value was 0.0525.

Take RRIRNRPPRLPRPRPRPTVSPRP: the “shrunken log2 fold change” value is -0.268.

Consider RRIRFRPPRLPRPRPRPDIIPRP, for which the “shrunken log2 fold change” value amounted to 0.0368.

For RRIRRRPPRLPRPRPRPCYNPRP, the “shrunken log2 fold change” value is -0.41.

For the sequence RRIRCRPPRLPRPRPRPSAPPRP, the “shrunken log2 fold change” value was found to be 0.0889.

Regarding RRIRHRPPRLPRPRPRPCWMPRP, the “shrunken log2 fold change” value is -0.032.

RRIRSRPPRLPRPRPRPHAMPRP: the “shrunken log2 fold change” value was -0.376.

Take RRIRSRPPRLPRPRPRPHNQPRP: the “shrunken log2 fold change” value is -0.271.

On to RRIRQRPPRLPRPRPRPLAKPRP, for which the “shrunken log2 fold change” value is -0.041.

As to RRIRVRPPRLPRPRPRPCVCPRP, the “shrunken log2 fold change” value was -0.0618.

In the case of RRIRVRPPRLPRPRPRPLDAPRP, the “shrunken log2 fold change” value amounted to 0.571.

In the case of RRIRFRPPRLPRPRPRPSVAPRP, the “shrunken log2 fold change” value was found to be 0.882.

Regarding RRIRARPPRLPRPRPRPMVKPRP, the “shrunken log2 fold change” value was -0.00629.

With RRIRRRPPRLPRPRPRPVPLPRP, the “shrunken log2 fold change” value is 0.385.

As for RRIRDRPPRLPRPRPRPSLMPRP, the “shrunken log2 fold change” value amounted to 0.175.

As for RRIRFRPPRLPRPRPRPQVLPRP, the “shrunken log2 fold change” value is -0.00198.

For RRIRQRPPRLPRPRPRPSPSPRP, the “shrunken log2 fold change” value is -0.144.

For the sequence RRIRMRPPRLPRPRPRPTEGPRP, the “shrunken log2 fold change” value amounted to 0.269.

On to RRIRARPPRLPRPRPRPGSLPRP, for which the “shrunken log2 fold change” value turned out to be 0.056.

RRIRGRPPRLPRPRPRPHPRPRP: the “shrunken log2 fold change” value worked out at 0.839.

As for RRIRERPPRLPRPRPRPGNDPRP, the “shrunken log2 fold change” value is -0.0081.

In the case of RRIRLRPPRLPRPRPRPPICPRP, the “shrunken log2 fold change” value was -0.0611.

For the sequence RRIRDRPPRLPRPRPRPNQIPRP, the “shrunken log2 fold change” value was -0.044.

RRIRKRPPRLPRPRPRPDADPRP: the “shrunken log2 fold change” value was determined as 0.163.

On to RRIRHRPPRLPRPRPRPCMWPRP, for which the “shrunken log2 fold change” value was -0.193.

Regarding RRIRNRPPRLPRPRPRPVAVPRP, the “shrunken log2 fold change” value was -0.0786.

Turning to RRIRARPPRLPRPRPRPQCMPRP, the “shrunken log2 fold change” value was found to be 0.153.

Turning to RRIRSRPPRLPRPRPRPLMPPRP, the “shrunken log2 fold change” value is 0.121.

Take RRIRGRPPRLPRPRPRPCAHPRP: the “shrunken log2 fold change” value worked out at 0.251.

For RRIRYRPPRLPRPRPRPPKIPRP, the “shrunken log2 fold change” value stood at 0.152.

As to RRIRIRPPRLPRPRPRPRHDPRP, the “shrunken log2 fold change” value is -0.385.

As to RRIRSRPPRLPRPRPRPTKAPRP, the “shrunken log2 fold change” value is 0.266.

As to RRIRSRPPRLPRPRPRPATYPRP, the “shrunken log2 fold change” value is -0.429.

In the case of RRIRVRPPRLPRPRPRPCFRPRP, the “shrunken log2 fold change” value is -0.164.

Take RRIRFRPPRLPRPRPRPLTMPRP: the “shrunken log2 fold change” value is -0.396.

RRIRDRPPRLPRPRPRPSCGPRP: the “shrunken log2 fold change” value came to 0.301.

RRIRARPPRLPRPRPRPAKRPRP: the “shrunken log2 fold change” value was 0.47.

Turning to RRIRPRPPRLPRPRPRPMIYPRP, the “shrunken log2 fold change” value is -0.113.

Turning to RRIRWRPPRLPRPRPRPVWKPRP, the “shrunken log2 fold change” value is 0.0259.

On to RRIRPRPPRLPRPRPRPPDHPRP, for which the “shrunken log2 fold change” value came to 0.182.

For the sequence RRIRCRPPRLPRPRPRPNASPRP, the “shrunken log2 fold change” value is 0.0178.

On to RRIRDRPPRLPRPRPRPEMPPRP, for which the “shrunken log2 fold change” value worked out at 0.0164.

For the sequence RRIRQRPPRLPRPRPRPEIMPRP, the “shrunken log2 fold change” value worked out at 0.103.

For the sequence RRIRTRPPRLPRPRPRPVTLPRP, the “shrunken log2 fold change” value is -0.37.

Turning to RRIRVRPPRLPRPRPRPQHSPRP, the “shrunken log2 fold change” value is -0.245.

Turning to RRIRMRPPRLPRPRPRPEFNPRP, the “shrunken log2 fold change” value came to 0.301.

For RRIRGRPPRLPRPRPRPGDQPRP, the “shrunken log2 fold change” value stood at 0.777.

With RRIRWRPPRLPRPRPRPSLEPRP, the “shrunken log2 fold change” value came out at 0.067.

For RRIRDRPPRLPRPRPRPCSIPRP, the “shrunken log2 fold change” value was -0.0309.

Consider RRIRGRPPRLPRPRPRPERHPRP, for which the “shrunken log2 fold change” value was 0.834.

Regarding RRIRCRPPRLPRPRPRPYGAPRP, the “shrunken log2 fold change” value was -0.569.

With RRIRRRPPRLPRPRPRPLQHPRP, the “shrunken log2 fold change” value worked out at 0.387.

For the sequence RRIRFRPPRLPRPRPRPYLPPRP, the “shrunken log2 fold change” value is -0.216.

On to RRIRYRPPRLPRPRPRPQQMPRP, for which the “shrunken log2 fold change” value was -0.232.
